According to PMC2952845:
Read-outs that look alike come from different tables or passages of the source.

Columns and labels:
Experiment in all cases: EMSA
[1] = target: T1, Runx1 Runt domain (CBF alpha2);CBFbeta (human?;human?, UniProt Q01196;Q13951 50-183;2-135, |)
[2] = target: T1, Runx1 Runt domain (CBF alpha2);CBFbeta; remark: listed apart in the source
[3] = target: T1, Runx1 Runt domain (CBF alpha2);CBFbeta; remark: listed apart in the source
[4] = target: T1, Runx1 Runt domain (CBF alpha2);CBFbeta; remark: listed apart in the source

T1 sequence (Q01196 50-183, chain 1 of 2): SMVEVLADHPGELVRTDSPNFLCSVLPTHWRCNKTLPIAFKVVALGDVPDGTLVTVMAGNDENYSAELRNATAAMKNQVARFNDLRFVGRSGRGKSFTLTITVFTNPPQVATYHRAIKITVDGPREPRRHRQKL
T1 sequence (Q13951 2-135, chain 2 of 2): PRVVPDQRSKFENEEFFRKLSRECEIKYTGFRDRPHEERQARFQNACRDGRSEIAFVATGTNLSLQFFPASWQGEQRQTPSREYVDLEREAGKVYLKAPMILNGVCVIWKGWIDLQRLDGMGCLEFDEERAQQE

B1: GM450Δ443/452 (dsDNA)
DNA 1: AGATCTCTCACTGCGTAGAAAC
DNA 2: AGGTTTCTACGCAGTGAGAGAT
binding result [1]: no binding

B2: GM450Δ443 (dsDNA)
DNA 1: AGATCTCTCACTGCCCACAAAC
DNA 2: AGGTTTGTGGGCAGTGAGAGAT
binding result [2]: binds

B3: WT GM450 (dsDNA)
DNA 1: AGATGTGTGGCTGCCCACAAAC
DNA 2: AGGTTTGTGGGCAGCCACACAT
binding result [3]: binds

B4: GM450Δ452 (dsDNA)
DNA 1: AGATGTGTGGCTGCGTAGAAAC
DNA 2: AGGTTTCTACGCAGCCACACAT
binding result [2]: binds

B5: Crystal palindrome (dsDNA)
DNA 1: AGATGTGCGGTCGACCGCAAAC
DNA 2: AGGTTTGCGGTCGACCGCACAT
binding result [4]: binds
